For this series, the system named is E. necator. Description: Leaf disc assay, dry inoculum (settling tower), decrease in disease severity / hyphal growth (Example 2). To be noted: decrease in disease severity (hyphal growth) relative to untreated control, value ± SE; for % decrease =/− SE TP1: time point 1 (untreated control hyphal growth ≥50%); for % decrease =/− SE TP2: time point 2.

B1: GS1806: dsRNA trigger SEQ ID NO 181; gene target Serine/threonine-protein kinase SCH9 (nucleic acid)
DNA: GACCAACCACAGCACATTTCAAAGACAAGTACGCCTAATGACCAAAAGTCAACCATCTTAGTATATCCTGTTTCATCTAGGAGAACCTCAGGAGCAAGGTATTCCGTGGTACCACAGAATGTATTTGTCGTCTCATTTTTGGTCAAGTTAGCTTTTGAAAGACCAAAATCACATAAAGCGATATGTCCATTAGCATCGAGCAGAATGTTTTCAGGTTTTAGATCGCGATAAACGATGTCATGTTTGTGAAGGTGCTGGAGAGCCAAAATGAGCTCAGCTATGTAAAATTTTGCTCGCTCTTCACAGAACCTTCCTTCTCTTTGTAAATGCCAAAAAAGTTCGCCTCCAGACATATAATCAGTTACCAAATAGAGATCACTTGGAGTTTGGAATGAAAATTTAAGTCCAACAATGAACTGCGACTCTGCCATAGCTGTTCTGACTAAGATATTTCTTTCGCCAACAGTATGGGCGACCTCTTTCTTTTGTACAATAACCTTTTTCTGAAGGACTTTCATGGCATAAATTCTTCCTGTATCTTTTTTCCTGACTTGATAAACTTGACCAAAAGTTCCTTTTCCTATCAGTTTCAAGAATT
For the molecule B1, the “% decrease =/− SE TP1” value was 34 ± 7% and the “% decrease =/− SE TP2” value is listed as 21 ± 7%.

B2: GS3457 (nucleic acid)
sense: UCAGGCAAGGGUGGAGUGGGUAAAAGUACAUUUACAACACUGCUUGCACAUGCACUUGCAAAAGACCCGGAAAUUGUGGUUGGUGUCAUGGAUACAGAUAUUUGCGGGCCAAGUAUUCCAAAAAUGAUGGGAGUUGAGGAAGAGAUUAUUCACGUCAGUAAUACAGGAUGGAGUCCAGUUUGGGUACUUGAAAAUCUAGCAGUAAUGAGCGUGCAAUUUAUGCUUCCCAACCGAGAUGAUGCAGUUAUUUGGAGAGGACCAAAGAAAAACGGCCUGAUAAAGCAAUUUUUAAAAGAUGUAGAAUGGGGCGAAAUGGAAUAUUUAUUAGUAGACACUCCACCAGGAACAAGUGAUGAACAUUUGAGUGUCAACACUUUUUUGAAAGAGAGUGGAA
antisense: UUCCACUCUCUUUCAAAAAAGUGUUGACACUCAAAUGUUCAUCACUUGUUCCUGGUGGAGUGUCUACUAAUAAAUAUUCCAUUUCGCCCCAUUCUACAUCUUUUAAAAAUUGCUUUAUCAGGCCGUUUUUCUUUGGUCCUCUCCAAAUAACUGCAUCAUCUCGGUUGGGAAGCAUAAAUUGCACGCUCAUUACUGCUAGAUUUUCAAGUACCCAAACUGGACUCCAUCCUGUAUUACUGACGUGAAUAAUCUCUUCCUCAACUCCCAUCAUUUUUGGAAUACUUGGCCCGCAAAUAUCUGUAUCCAUGACACCAACCACAAUUUCCGGGUCUUUUGCAAGUGCAUGUGCAAGCAGUGUUGUAAAUGUACUUUUACCCACUCCACCCUUGCCUGA
In the case of B2, the “% decrease =/− SE TP1” value is on record as 13 ± 4%.

B3: GS3454 (nucleic acid)
sense: GCUCUUCUCAAUGGAUCCCAAGAUGAUCUAAAUAGAAUCGCAGAACACUUUAAGUUGACAAAGUUGAAAGAGCUCUAUGAAAAACAAUGUCAAGUUUUAAAAAGAUUUGAUAGACCCAAUCCUUCUGUUCCAAUAGCCAUAGCACAUUUAUAUCCUCCAGGCCCUAUAAAUCCACAUUACUCAGCAGCUAUGGCACGAGAAGCUGAGAAAAAAAAUUCAAACCCUCUUAAAAACACUGCAACACAAACUAGUUCUAAGGAGGUUGGCUUAAGUACCAUUAGUAAUAAAAAUUCUCUUAUAAAUUCGAGGCGCUCAAAAGGACAAGAUAUGCCAACUCAGGCUAGCAGUUUGGCAGAAAAAUUUAGUCAAAGUAUGAUGGAUCAGGAGCUUGAUGAUGA
antisense: UCAUCAUCAAGCUCCUGAUCCAUCAUACUUUGACUAAAUUUUUCUGCCAAACUGCUAGCCUGAGUUGGCAUAUCUUGUCCUUUUGAGCGCCUCGAAUUUAUAAGAGAAUUUUUAUUACUAAUGGUACUUAAGCCAACCUCCUUAGAACUAGUUUGUGUUGCAGUGUUUUUAAGAGGGUUUGAAUUUUUUUUCUCAGCUUCUCGUGCCAUAGCUGCUGAGUAAUGUGGAUUUAUAGGGCCUGGAGGAUAUAAAUGUGCUAUGGCUAUUGGAACAGAAGGAUUGGGUCUAUCAAAUCUUUUUAAAACUUGACAUUGUUUUUCAUAGAGCUCUUUCAACUUUGUCAACUUAAAGUGUUCUGCGAUUCUAUUUAGAUCAUCUUGGGAUCCAUUGAGAAGAGC
In the case of B3, the “% decrease =/− SE TP1” value is given as 4 ± 4% and the “% decrease =/− SE TP2” value is listed as 0 ± 9%.

Values taken from patent US12077763B2, “RNA-based control of powdery mildew” (Greenlight Biosciences, Inc., priority 2021, dated 2024).
